We go through two substances from publication PMC4138198.

In experiment [1] the target is Pmr (plasmid pCAR1 (isolated originally from P. resinovorans CA10)). The experiment is described as follows: SEC; 1 ml of purified protein at 140 uM on HiLoad 16/60 Superdex 200 prep grade in buffer B (20 mM Tris-HCl pH 7.5, 4°C, 0.5 M NaCl, 10% glycerol, 0.5 M imidazole); fractions checked by Tricine-SDS-PAGE and anti-His Western blot.
For experiment [2] the target is unchanged. Nature of the experiment: SPR; Biacore 2000, biotinylated Pmr, TurA or TurB (about 500 RU) immobilised on streptavidin chip SA, Pmr as analyte at lower concentrations; 4°C, 20 mM Tris-HCl pH 7.5, 0.5 M NaCl, 5% glycerol, 475 mM imidazole, 30 ul/min; Req divided by the immobilised amount. In general terms: SPR reads the build-up and loss of mass on a sensor chip optically.

The next experiment deals with TurA (P. putida KT2440). Described as above.
The target of experiment [3] is Pmr-R8A (plasmid pCAR1 (isolated originally from P. resinovorans CA10)). Nature of the experiment: SEC; 1 ml of purified protein at 140 uM on HiLoad 16/60 Superdex 200 prep grade in buffer B (20 mM Tris-HCl pH 7.5, 4°C, 0.5 M NaCl, 10% glycerol, 0.5 M imidazole); fractions checked by Tricine-SDS-PAGE and anti-His Western blot.

As to Pmr (natural protein), the stoichiometry N (commonly a count of units in the complex or per binding partner) in experiment [1] is 35 -mer. The binding amount of APmr per ligand homodimer, relative to LTurB-APmr (in experiment [2]; with TurA (P. putida KT2440)) was 2 fold in each case.

For Pmr-R8A (natural protein), in experiment [3], the stoichiometry N was 6 -mer.
